From US8394929B2, “Nogo receptor-mediated blockade of axonal growth” (Yale University, priority 2000, dated 2013)

Assays:
[1] = system: GST-Nogo-induced growth cone collapse; test: Blockade of Nogo-induced growth cone collapse in chick DRG cultures; format: cell-based; details: GST-Nogo / Nogo-66 as collapsing agent
Method: (§1) For all experiments involving cell culture, the following methods were employed. The culture of embryonic chick E10 and E12 dorsal root ganglion explants and dissociated neurons utilized methods described for E7 dorsal root ganglion cultures (Takahashi et al., (1998) Nature Neurosci. 1, 487-493; Takahashi et al., (1999) Cell 99, 59-69; Goshima et al., (1995) Nature 376, 509-514; Jin & Strittmatter, (1997) J. Neurosci. […]). NGF-differentiated PC12 cells were cultured as described (Strittmatter et al., (1994) J. Neurosci. 14, 2327-2338). Embryonic spinal cord explants (rat E10 or chick E5) were cultured for 7-14 days in the presence of PDGF-AA to induce differentiation of some cells into mature oligodendrocytes (Vartanian et al., (1999) Proc. Natl. Acad. Sci. USA 96, 731-735). The procedure for growth cone collapse assays is identical to that for analysis of Sema3A-induced growth cone collapse (Takahashi et al., (1998) Nature Neurosci. 1, 487-493; Takahashi et al., (1999) Cell 99, 59-69; Goshima et al., (1995) Nature 376, 509-514; Jin & Strittmatter, (1997) J. Neurosci. 17, 6256-6263). The method for analysis of total neurite outgrowth has also been described (Goshima et al., (1995) Nature 376, 509-514; Jin & Strittmatter, (1997) J. Neurosci. 17, 6256-6263; Strittmatter et al., (1994) J. Neurosci. 14, 2327-2338). In outgrowth assays, proteins and peptides were added one hour after plating to minimize any effect on the total number of adherent cells. To test the effect of substrate-bound GST or GST-Nogo, the protein solutions were dried on poly-L-lysine coated glass, washed and then coated with laminin. For E12 cultures, the neuronal identity of cells was verified by staining with anti-neurofilament antibodies (2H3, Develomental Studies Hybridoma Bank) and neurites were traced by observation of rhodamine-phalloidin staining of F-actin in processes.
In the growth cone collapse assay, the response to Nogo was measured in the presence of various potential antagonistic peptides. […] This blockade supports the hypothesis that Nogo is a primary inhibitory component of CNS myelin.
For further testing, a synthetic peptide containing amino acid residues #1055-1094 of hNgR, acetylated at the […] was used [hereinafter “Peptide 140”]. […] Antagonist of Nogo-66 inhibitory activity may act by competing for, and thereby blocking NgR binding sites. To determine the antagonistic activity of Peptide 140, the above synthetic form of the peptide was added to E12 chick DRG explant cultures approximately 10 min before application of various concentrations of GST-NogoA (residues #1055-1120), TPA or Sema3A. 30 min later, cultures were fixed and growth cone collapse was assessed following staining with rhodamine-phalloidin.

[2] = system: GST-Nogo-66 inhibition of neurite outgrowth; test: Blockade of Nogo-induced inhibition of neurite outgrowth in chick DRG neurons; format: cell-based
Method: as §1
Peptide 140 was tested for its ability to neutralize neurite outgrowth inhibition caused by the addition of GST fused to residues #1055-1120 of hNogoA (designated Nogo-66 in FIG. 16e). Plastic chamber slides were coated with 100 μg ml^−1 poly-L-lysine, washed, and dried. 3 μl drops of PBS containing GST-hNogoA(residues #1055-1120) were spotted and dried. Slides were then rinsed and coated with 10 μg ml fs24^−1 laminin before addition of dissociated E12 chick DRGs. Peptide 140 was added at the time of cell plating. Cultures were grown for 5-7 h after which neurite outgrowth was assessed.
Although the role of the GPI anchor may be to regulate NgR cellular compartmentalization, another possible role for the GPI linkage is to provide a NgR cleavage site. Cleaving NgR could serve to affect hNogo-A (1055-1120) signaling by rendering a neuron insensitive to hNogo-A (1055-1120) and by releasing soluble NgR that could then act on adjacent cells to modulate hNogo-A (1055-1120) signaling. To determine if soluble mNgR modulates hNogo-A (1055-1120)-dependent inhibition, a soluble mNgR was generated by inserting a truncated cDNA encoding mNgR residues 1-348 in frame with a myc-His carboxy tag into pcDNA3.1. The resulting plasmid expressing mNgREcto was transfected into HEK293T cells, and conditioned media containing mNgREcto protein was collected. To test the effect of mNgREcto on Nogo signaling, E13 dissociated DRGs were plated in the presence of hNogo-A (1055-1120) or myelin. The inhibitors were presented in either soluble or substrate-bound forms. For neurite outgrowth assays on hNogo-A (1055-1120) or myelin substrates, Permanox chamber slides were coated with 100μ, fs24 g ml^−1 poly-L-Lysine, washed, and then 3-μl drops of phosphate-buffered saline (hereinafter “PBS”) containing 0, 10, 50, or 150 ng of GST-hNogo-A (1055-1120) or myelin were spotted and dried. GST-hNogo-A (1055-1120) and myelin were prepared as previously described (GrandPre et al., supra; Fournier et al., J. Cell Biol. 149:411-421, 2000). After three PBS washes, slides were coated with 10 μg ml^−1 laminin. […]

[3] = system: CNS myelin induced neurite outgrowth inhibition; test: Blockade of CNS myelin induced neurite outgrowth inhibition in chick DRG neurons; format: cell-based
Method: To determine the antagonistic activity of Peptide 140 against CNS myelin, the above synthetic peptide was added approximately 10 min before application of CNS myelin. 30 min later, cultures were fixed and growth cone collapse was assessed following staining with rhodamine-phalloidin. For neurite outgrowth assays, plastic chamber slide were coated with 100 μg ml^−1 poly-L-lysine, washed, and dried. 3 μl drops of PBS containing CNS myelin were spotted and dried. Slides were then rinsed and coated with 10 μg ml fs24^−1 laminin before addition of dissociated E12 chick DRGs. Peptide 140, or the scrambled version of Peptide 140, was added at the time of cell plating. Cultures were grown for 5-7 h after which neurite outgrowth was assessed.
Although the role of the GPI anchor may be to regulate NgR cellular compartmentalization, another possible role for the GPI linkage is to provide a NgR cleavage site. Cleaving NgR could serve to affect hNogo-A (1055-1120) signaling by rendering a neuron insensitive to hNogo-A (1055-1120) and by releasing soluble NgR that could then act on adjacent cells to modulate hNogo-A (1055-1120) signaling. To determine if soluble mNgR modulates hNogo-A (1055-1120)-dependent inhibition, a soluble mNgR was generated by inserting a truncated cDNA encoding mNgR residues 1-348 in frame with a myc-His carboxy tag into pcDNA3.1. The resulting plasmid expressing mNgREcto was transfected into HEK293T cells, and conditioned media containing mNgREcto protein was collected. To test the effect of mNgREcto on Nogo signaling, E13 dissociated DRGs were plated in the presence of hNogo-A (1055-1120) or myelin. The inhibitors were presented in either soluble or substrate-bound forms. For neurite outgrowth assays on hNogo-A (1055-1120) or myelin substrates, Permanox chamber slides were coated with 100μ, fs24 g ml^−1 poly-L-Lysine, washed, and then 3-μl drops of phosphate-buffered saline (hereinafter “PBS”) containing 0, 10, 50, or 150 ng of GST-hNogo-A (1055-1120) or myelin were spotted and dried. GST-hNogo-A (1055-1120) and myelin were prepared as previously described (GrandPre et al., supra; Fournier et al., J. Cell Biol. 149:411-421, 2000). After three PBS washes, slides were coated with 10 μg ml^−1 laminin. Laminin was then aspirated and dissociated E13 chick DRG neurons were added. After 6-8 hr of outgrowth, cultures were fixed and neurite outgrowth lengths were assessed. For blockade experiments with NgREcto, spots were incubated with HEK293T cell conditioned media or NgREcto-transfected-HEK293T cell conditioned media following for 1 hr following the laminin coating step and before the addition of dissociated neurons. […] Thus, soluble fragments of NgR might serve physiologically or pharmacologically to reduce GST-hNogo-A (1055-1120) inhibition of axonal regeneration.

mouse NgR = molecular target: T1, mouse NgR (Mus musculus, UniProt Q99PI8); test: AP-fusion protein binding to COS-7 cells expressing mouse NgR
T1 construct: expressed in transfected cells; host or cells: COS-7
T1 sequence (Q99PI8 27-473): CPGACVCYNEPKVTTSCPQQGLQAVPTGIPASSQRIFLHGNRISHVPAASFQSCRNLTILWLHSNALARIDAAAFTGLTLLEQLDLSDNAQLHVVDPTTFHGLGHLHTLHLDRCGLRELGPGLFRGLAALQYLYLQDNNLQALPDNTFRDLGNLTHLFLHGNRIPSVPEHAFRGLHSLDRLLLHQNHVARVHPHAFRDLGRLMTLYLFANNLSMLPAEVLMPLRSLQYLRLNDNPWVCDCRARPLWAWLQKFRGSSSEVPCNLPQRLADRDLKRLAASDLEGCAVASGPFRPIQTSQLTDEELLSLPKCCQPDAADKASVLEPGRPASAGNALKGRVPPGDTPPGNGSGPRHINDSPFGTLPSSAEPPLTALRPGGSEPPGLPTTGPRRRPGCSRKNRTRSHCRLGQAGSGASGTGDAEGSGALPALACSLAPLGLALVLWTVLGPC
Method: To determine if AP-fused deletion mutants of Nogo-66 bind mouse NgR (“mNgR”), COS-7 cells were transfected with a plasmid encoding the mouse NgR sequence ligated into pcDNA3.1. 48 hours after transfection, cells were washed with HBH (Hanks balanced salt solution containing 20 mM sodium Hepes, pH 7.05, and 1 mg ml^−1 bovine serum albumin) and then incubated with condition medium containing one of the AP-fusion proteins described above for 2 hours at 37° C. Cells were then washed, fixed, and left in HBH at 67° C. for 14-16 h to inactivate endogenous AP. AP-fusion protein binding to NgR expressing COS-7 cells was detected with the substrates NBT and BCIP (FIG. 13b).
To determine whether mNgR or mNgR deletion mutants bound to hNogo-A (1055-1120), wtNgR or mNgR deletion mutants were transfected into COS-7 cells. Forty-eight hours after the transfection, the transfected COS-7 cells were washed with hanks balanced salt solution containing 20 mM sodium HEPES, pH 7.05, and 1 mg/ml bovine serum albumin (BSA) [hereinafter “HBH”]. Cells were then incubated for 2 hours at 23° C. with a conditioned medium enriched with purified AP-hNogo-A (1055-1120) diluted in HBH. AP-fusion protein was detected as previously described for AP-Sema3A (Takahashi et al., Nature Neurosci. 1:487-493, 1998).

binding to NgR expressing COS-7 cells (in words) (mouse NgR)	Substance	blockade of Nogo-induced growth cone collapse (in words) [1]	other results
bound mNgR well	2-40: peptides having residues 2-40 of the hNogoA (#1055-1120) (IYKGVIQAIQKSDEGHPFRAYLESEVAISEELVQKYSNS; UniProt Q9NQC3 1056-1094, looked up, fragment) [Peptide 2-40]	–	–
no binding	10-40: peptides having residues 10-40 of hNogoA (#1055-1120) (IQKSDEGHPFRAYLESEVAISEELVQKYSNS) [Peptide 10-40]	–	–
bind strongly and almost equivalently	1-34: peptides having residues 1-34 of hNogoA (#1055-1120) (RIYKGVIQAIQKSDEGHPFRAYLESEVAISEELV; UniProt Q9NQC3 1055-1088, looked up, fragment) [Peptide 1-34]	–	–

Second part, the substance before the results:

Substance	binding to NgR expressing COS-7 cells (in words) (mouse NgR)	blockade of Nogo-induced growth cone collapse (in words) [1]	other results
21-45: 25 amino acid peptide, residues 21-45 of the extracellular domain of Nogo (RAYLESEVAISEELVQKYSNSALGH) [Peptide 21-45]	–	blocking activity at μM concentrations	–
acetyl-SYVKEYAPIFAGKSRGEIKYQSIEIHEAQVRSDELVQSLN-amide (Ac-SYVKEYAPIFAGKSRGEIKYQSIEIHEAQVRSDELVQSLN-NH2) [scrambled version of Peptide 140, reference compound]	–	–	blockade of Nogo-induced neurite outgrowth inhibition (in words) [2]: does not result in blockade of outgrowth inhibition; blockade of CNS myelin induced neurite outgrowth inhibition (in words) [3]: ineffective
1-31: peptides having residues 1-31 of hNogoA (#1055-1120) (RIYKGVIQAIQKSDEGHPFRAYLESEVAISE; UniProt Q9NQC3 1055-1085, looked up, fragment) [Peptide 1-31]	almost no binding	–	–
1-25: 25 amino acid peptide, residues 1-25 of the extracellular domain of Nogo (FRIYKGVIQAIQKSDEGHPFRAYLE) [Peptide 1-25]	–	blocking activity at μM concentrations	–
1-33: peptides having residues 1-33 of hNogoA (#1055-1120) (RIYKGVIQAIQKSDEGHPFRAYLESEVAISEEL; UniProt Q9NQC3 1055-1087, looked up, fragment) [Peptide 1-33]	–	–	binding to mNgR, less compared to the strong binders (mouse NgR; data not shown): approximately 50%
1-30: peptides having residues 1-30 of hNogoA (#1055-1120) (RIYKGVIQAIQKSDEGHPFRAYLESEVAIS; UniProt Q9NQC3 1055-1084, looked up, fragment) [Peptide 1-30]	almost no binding	–	–
11-35: 25 amino acid peptide, residues 11-35 of the extracellular domain of Nogo (IQKSDEGHPFRAYLESEVAISEELV) [Peptide 11-35]	–	blocking activity at μM concentrations	–
